Reference: paper PMC4605320, “Interference activity of a minimal Type I CRISPR–Cas system from Shewanella putrefaciens”

Molecular target: T1, Cas1821 (Cascade backbone);Cas1822;Cas6f (Shewanella putrefaciens …, UniProt A4Y6G1;A4Y6G2;A4Y6G3 1-315;1-336;1-183, ||)
T1 sequence 1: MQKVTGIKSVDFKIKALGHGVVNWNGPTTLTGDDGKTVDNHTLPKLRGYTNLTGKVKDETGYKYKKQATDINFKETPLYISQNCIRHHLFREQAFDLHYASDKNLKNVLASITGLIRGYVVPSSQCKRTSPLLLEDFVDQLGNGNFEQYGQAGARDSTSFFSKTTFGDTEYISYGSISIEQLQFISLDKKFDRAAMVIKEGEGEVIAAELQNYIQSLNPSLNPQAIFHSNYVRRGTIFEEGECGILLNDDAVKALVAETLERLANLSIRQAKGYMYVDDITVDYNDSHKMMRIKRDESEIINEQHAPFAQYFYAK
T1 sequence 2: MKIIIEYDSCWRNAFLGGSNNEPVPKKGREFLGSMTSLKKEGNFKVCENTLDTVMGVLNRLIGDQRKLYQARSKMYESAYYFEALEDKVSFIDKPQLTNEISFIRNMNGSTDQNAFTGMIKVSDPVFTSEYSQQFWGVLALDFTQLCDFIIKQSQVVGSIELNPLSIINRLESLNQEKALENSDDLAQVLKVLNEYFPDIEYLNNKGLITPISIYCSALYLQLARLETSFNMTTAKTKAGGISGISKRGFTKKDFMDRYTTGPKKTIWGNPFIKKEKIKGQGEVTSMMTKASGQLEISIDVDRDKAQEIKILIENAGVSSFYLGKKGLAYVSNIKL
T1 sequence 3: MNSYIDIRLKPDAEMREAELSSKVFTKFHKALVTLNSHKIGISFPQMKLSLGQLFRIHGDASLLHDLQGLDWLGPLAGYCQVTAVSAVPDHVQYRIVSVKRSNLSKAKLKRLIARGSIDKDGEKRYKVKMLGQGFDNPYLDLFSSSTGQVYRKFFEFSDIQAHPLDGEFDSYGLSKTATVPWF
Assay: co-purification (Ni-NTA, size exclusion; RNA by urea PAGE); complex assembled in E. coli; EMSA: 6% native PAGE, 250-500 nM Cas1821, buffer and temperature not given; Cascade SEC: 50 mM HEPES-NaOH pH 7.0, 150 mM NaCl, 1 mM DTT
Conditions: protein: recombinant;recombinant;recombinant; tags: N-terminal His;none;none; chain copies: 6;1;1; 3' five base pair stem-loop (predicted)

B1: mature crRNA, spacer4 (60 nt) (structured_RNA)
RNA: CUUAGAAAUAUCGCCCAGCAAGACGCGCAAACCUAUAACCGUUCACCGCCGCACAGGCGG
binding result: binds
